Experiment [1] concerns secretion of soluble MDA-7 protein. Nature of the experiment: Inhibition of glycosylation and secretion of MDA-7 protein. Type of experiment: cell-based. The source says:
Two antibiotics, Tunicamycin and Brefeldin A, have been used to provide a more detailed characterization of the secretion of soluble MDA-7. N-linked glycosylation plays an important role in a protein's ultimate processing, whether it is sorted to a lysosomal pathway, or translocated to the cell surface or secreted. Using Tunicamycin, the N-linked glycosylation process in the […] can be inhibited, thus inhibiting protein secretion or other sugar-dependent sorting processes.

The next experiment concerns H1299 cells. Nature of the experiment: Soluble MDA-7 supernatant killing, trypan blue exclusion. It is filed as cell-based, human. The settings on record: supernatants, 48 hours. As for the experimental part: FIG. 11A. Soluble MDA-7 (sMDA7) kills tumor cells. […] All the supernatants used in this experiment were filtered through a 0.1 micron filter prior to challenge with H1299 cells. FIG. 11B. H1299 cells were challenged with soluble MDA-7 supernatant from four different stocks and percentage dead cells evaluated after 48 hours: 1) 293*NF: Non-filtered supernatant obtained from modified 293 cells (cells were grown in serum-free conditions); 2) 293*F: 0.1 micron filtered supernatant obtained from modified 293 cells; 3) 293F: 0.1 micron filtered supernatant obtained from regular 293 cells (FBS+); and 4) H1299F: 0.1 micron filtered supernatant obtained from H1299 cells. D0 is non-diluted material whereas D1:1; D1:5, D1:10 indicate the dilutions used.
The secreted form of MDA-7 (sMDA-7) was produced using various cell lines and evaluated for anti-tumor activity. Soluble MDA-7 was analyzed for its anti-proliferative effects on H1299 cells. Briefly, H1299 cells were plated at cell density of 10^3 cells/chamber in Nunc chamber slides. 24 hours later, the cells were challenged with supernatants obtained from H1299 cells transduced with either Ad-mda-7 or Ad-luc (at 1000 vp/cell infection). Ad-mda7 and Ad-luc viruses were also used as additional controls. […]

In experiment [2] the test system is PBMC. The experiment is described as follows: Secondary cytokine secretion from PBMC (ELISA). It is filed as cell-based, human. On the procedure:
FIG. 24. Effect of MDA-7 and IL-10 on inflammatory cytokine secretion from PBMC. Two ml/well (2×10^6 cells/ml) PBMC were plated in a 24 well plate and cultured untreated or with indicated amounts of MDA-7 (B 2 ng/ml; D,F 20 ng/ml), 5 μg/ml LPS, 5 μg/ml PHA, 500 U/ml IL-10 (˜17 ng/ml; R & D Systems, Minneapolis, Minn.) or combination of IL-10 and MDA-7. Supernatants were harvested at 48 hours and analyzed for cytokine content by ELISA (Endogen, Corp) according to manufacturer's instructions. Data from one representative donor are reported. * Indicates values above standard curve.
FIG. 25. […] Human PBMC were treated with 5 μg/ml LPS, 500 U/ml IL-10, 5 ng/ml MDA-7 or combinations for 48 hours. An equal volume of an S column fraction not containing MDA-7 as determined by Western (an MDA-7 Neg Fraction) was used as a control for buffer/salt content. Supernatants were harvested at 48 hours and analyzed for cytokine content by ELISA (Endogen, Corp) according to manufacturer's instructions. Data from one representative donor are reported. * Indicates value greater than 500 pg/ml IL-1β. ** Actual values are 539 pg/ml IL-12 and 893 pg/ml GM-CSF. Data from one representative donor are reported.
Activation of PBMC: PBMC were isolated from the peripheral blood of normal healthy donors by centrifugation over Histopaque (Sigma, St. Louis, Mo.). Cells were cultured at a concentration of 1×10^6 cells/ml in RPMI-1640 based media supplemented with L-glutamine, Hepes, penicillin, streptomycin, and 10% human AB serum (Pelfreez, Brown Deer, Wis.) for 72 hr in the presence of PHA-P at 5 μg/ml or LPS 10 μg/ml (both from Sigma, St. Louis, Mo.). Four hours prior to harvest Brefeldin A (BFA, Sigma-Aldrich) was added at a final concentration of 10 μg/ml. The supernatants as well as cells were then harvested.
ELISA assays. The ELISA reaction to detect human MDA-7 was carried out in 96-well plates using standard techniques and an antibody pair selected for sentivity. Elisa assays for cytokines were perfomed in an identical manner, employing commercially available kits as designated in the figure legends.
A general note: In an ELISA, binding on a coated surface is turned into a signal by an enzyme label.

Experiment [3] relates to PBMC. Nature of the experiment: PBMC proliferation (thymidine uptake). Type of experiment: cell-based, human. The settings on record: 4 days of coculture; three donors. The text has this:
Some cytokines can also function as growth factors. Therefore the proliferative simulation function of MDA-7 was addressed using PBMC. IL-10 was included as a negative cytokine control.

The mark [4] stands for this setting: 500 U/ml IL-10, 5 ng/ml MDA-7, 48 hours.
Setting [5] is: 500 U/ml IL-10 added to PBMC stimulated by MDA-7.

Here are results for 5 molecules from patent publication US20020183271A1, “Methods of treatment involving human MDA-7” (priority 2000, published 2002).

Turning to `C[C@H]1CCC/C=C/[C@@H]2C[C@H](O)C[C@H]2[C@H](O)/C=C/C(=O)O1` [Brefeldin A], the “secretion of soluble MDA-7 protein” value in experiment [1] was “effectively inhibit the secretion of soluble MDA-7 protein”.

For Tunicamycin, the “secretion of soluble MDA-7 protein” value in experiment [1] is reported as “effectively inhibit the secretion of soluble MDA-7 protein”.

B1: soluble MDA-7: secreted form of MDA-7 in filtered supernatants of cells transduced with Ad-mda7 (protein, UniProt Q13007 52-206, looked up)
Interleukin-24: QEFHFGPCQVKGVVPQKLWEAFWAVKDTMQAQDNITSARLLQQEVLQNVSDAESCYLVHTLLEFYLKTVFKNYHNRTVEVRTLKSFSTLANNFVLIVSQLQPSQENEMFSIRDSAHRRFLLFRRAFKQLDVEAALTKALGEVDILLTWMQKFYKL
On to B1, for which the results for the “killing of H1299 cells” value in the experiment on H1299 cells and in the experiment with H1299 cells (listed as soluble MDA-7 protein) were “concentration-dependent bystander killing effect” and “showed H1299 killing”, respectively.

B2: recombinant MDA-7 expressed in E. coli and S. cerevisiae: recombinant MDA-7 expressed in E. coli and S. cerevisiae, used in preliminary experiments (protein, UniProt Q13007 52-206, looked up)
Interleukin-24: QEFHFGPCQVKGVVPQKLWEAFWAVKDTMQAQDNITSARLLQQEVLQNVSDAESCYLVHTLLEFYLKTVFKNYHNRTVEVRTLKSFSTLANNFVLIVSQLQPSQENEMFSIRDSAHRRFLLFRRAFKQLDVEAALTKALGEVDILLTWMQKFYKL
As to B2, the “secondary cytokine production, preliminary experiments” value with PBMC [2] (very high doses (μg/ml quantities) required) is “robust production of IL-6, TNFα, and IFNγ, very low levels of GM-CSF and IL-10, and no IL-2, IL-4, and IL-5”. In addition, in the experiment with PBMC [3], the “proliferation (thymidine uptake)” value is listed as “did not show a proliferative response”.

B3: IL-10: Human recombinant IL-10 purchased from R&D Systems (protein, UniProt P22301 19-178, looked up)
Interleukin-10: SPGQGTQSENSCTHFPGNLPNMLRDLRDAFSRVKTFFQMKDQLDNLLLKESLLEDFKGYLGCQALSEMIQFYLEEVMPQAENQDPDIKAHVNSLGENLKTLRLRLRRCHRFLPCENKSKAVEQVKNAFNKLQEKGIYKAMSEFDIFINYIEAYMTMKIRN
For the molecule B3, in the experiment on PBMC [2] (setting [4]), the “effect of IL-10 on GM-CSF production” value was “partially inhibited”, the “effect of IL-10 on IL-1β production” value is listed as “partially inhibited” and the “effect of IL-10 on IL-12 production” value was “completely inhibited”. Further, in the experiment with PBMC [2] (setting [5]), the “effect of IL-10 on IFNγ induction by MDA-7” value is listed as “completely abrogated”, the “effect of IL-10 on IL-6 induction by MDA-7” value is “partially blocked” and the “effect of IL-10 on TNFα induction by MDA-7” value is given as “completely abrogated”. Besides, the “proliferation (thymidine uptake)” value in the experiment with PBMC [3] is “did not induce increased thymidine uptake”.
